From patent US20110118172A1

Target: metastin receptor (OT7T175) stably expressed on CHO cells
Assay: cell-based or functional assay

Row | Specific Activity: EC50 of the test compound based on EC50 of Metastin (45-54); agonist activity by change in intracellular calcium ion level (Fluo-4 NW, FLIPR) in receptor-expressing CHO cells | Substance
1 | 2.2 | Compound No. 972: dimethylaminoethylureido-D-Tyr-Hyp-Asn-Thr-Phe-AzaGly-Leu-Arg(Me)-Trp-NH2 (peptide)
2 | 0.4 | Compound No. 973: iso-butylureido-D-Tyr-Hyp-Asn-Thr-Phe-AzaGly-Leu-Arg(Me)-Trp-NH2 (peptide)
